The values below come from PMC2615623 (Nucleic Acids Research, 2008).

In experiment [1] the target is T1, His-tagged human RNASEH2B (human, UniProt Q5TBB1 1-312).
T1 sequence (looked up): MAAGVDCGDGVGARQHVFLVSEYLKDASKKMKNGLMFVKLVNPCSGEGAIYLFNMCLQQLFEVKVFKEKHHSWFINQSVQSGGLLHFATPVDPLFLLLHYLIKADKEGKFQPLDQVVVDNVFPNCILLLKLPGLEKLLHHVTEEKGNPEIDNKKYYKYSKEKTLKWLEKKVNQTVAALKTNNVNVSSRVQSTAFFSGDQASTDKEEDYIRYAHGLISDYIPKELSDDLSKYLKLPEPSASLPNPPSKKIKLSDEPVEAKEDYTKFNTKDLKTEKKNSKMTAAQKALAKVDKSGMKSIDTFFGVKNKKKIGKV
The experiment in a line: SEC. In general terms: Size exclusion chromatography separates by hydrodynamic size, large species first.

The target of experiment [2] is T2, His-tagged human RNASEH2C (human, UniProt Q8TDP1 1-164).
T2 sequence (looked up): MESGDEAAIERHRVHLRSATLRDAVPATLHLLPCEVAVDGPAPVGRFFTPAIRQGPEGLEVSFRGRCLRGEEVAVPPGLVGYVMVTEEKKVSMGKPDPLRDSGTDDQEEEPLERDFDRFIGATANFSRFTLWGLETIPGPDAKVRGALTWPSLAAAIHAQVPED
The experiment is described as follows: SEC.

B1: His-tagged human RNASEH2A (natural protein, UniProt O75792 1-299, looked up)
chain: MDLSELERDNTGRCRLSSPVPAVCRKEPCVLGVDEAGRGPVLGPMVYAICYCPLPRLADLEALKVADSKTLLESERERLFAKMEDTDFVGWALDVLSPNLISTSMLGRVKYNLNSLSHDTATGLIQYALDQGVNVTQVFVDTVGMPETYQARLQQSFPGIEVTVKAKADALYPVVSAASICAKVARDQAVKKWQFVEKLQDLDTDYGSGYPNDPKTKAWLKEHVEPVFGFPQFVRFSWRTAQTILEKEAEDVIWEDSASENQEGLRKITSYFLNEGSQARPRSSHRYFLERGLESATSL
Turning to B1, the “stoichiometry N” value in experiment [1] and in experiment [2] was 1 A:B:C each time.
